In publication PMC4895024 (2016):

Assays:
[1] = molecular target: T1, ProAgio (D1-CD2 variant 3) ( (human and rat D1-CD2 are …, UniProt P06729 25-206)); test: SPR
[2] = molecular target: T1, ProAgio (D1-CD2 variant 3); test: ELISA; without polyLys

Kd [1]: 2 nM
Kd [2]: 35 nM
B1: recombinant integrin αvβ3 (commercial) (receptor)
chain 1: FNLDVDSPAEYSGPEGSYFGFAVDFFVPSASSRMFLLVGAPKANTTQPGIVEGGQVLKCDWSSTRRCQPIEFDATGNRDYAKDDPLEFKSHQWFGASVRSKQDKILACAPLYHWRTEMKQEREPVGTCFLQDGTKTVEYAPCRSQDIDADGQGFCQGGFSIDFTKADRVLLGGPGSFYWQGQLISDQVAEIVSKYDPNVYSIKYNNQLATRTAQAIFDDSYLGYSVAVGDFNGDGIDDFVSGVPRAARTLGMVYIYDGKNMSSLYNFTGEQMAAYFGFSVAATDINGDDYADVFIGAPLFMDRGSDGKLQEVGQVSVSLQRASGDFQTTKLNGFEVFARFGSAIAPLGDLDQDGFNDIAIAAPYGGEDKKGIVYIFNGRSTGLNAVPSQILEGQWAARSMPPSFGYSMKGATDIDKNGYPDLIVGAFGVDRAILYRARPVITVNAGLEVYPSILNQDNKTCSLPGTALKVSCFNVRFCLKADGKGVLPRKLNFQVELLLDKLKQKGAIRRALFLYSRSPSHSKNMTISRGGLMQCEELIAYLRDESEFRDKLTPITIFMEYRLDYRTAADTTGLQPILNQFTPANISRQAHILLDCGEDNVCKPKLEVSVDSDQKKIYIGDDNPLTLIVKAQNQGEGAYEAELIVSIPLQADFIGVVRNNEALARLSCAFKTENQTRQVVCDLGNPMKAGTQLLAGLRFSVHQQSEMDTSVKFDLQIQSSNLFDKVSPVVSHKVDLAVLAAVEIRGVSSPDHVFLPIPNWEHKENPETEEDVGPVVQHIYELRNNGPSSFSKAMLHLQWPYKYNNNTLLYILHYDIDGPMNCTSDMEINPLRIKISSLQTTEKNDTVAGQGERDHLITKRDLALSEGDIHTLGCGVAQCLKIVCQVGRLDRGKSAILYVKSLLWTETFMNKENQNHSYSLKSSASFNVIEFPYKNLPIEDITNSTLVTTNVTWGIQPAPMPV
chain 2: GPNICTTRGVSSCQQCLAVSPMCAWCSDEALPLGSPRCDLKENLLKDNCAPESIEFPVSEARVLEDRPLSDKGSGDSSQVTQVSPQRIALRLRPDDSKNFSIQVRQVEDYPVDIYYLMDLSYSMKDDLWSIQNLGTKLATQMRKLTSNLRIGFGAFVDKPVSPYMYISPPEALENPCYDMKTTCLPMFGYKHVLTLTDQVTRFNEEVKKQSVSRNRDAPEGGFDAIMQATVCDEKIGWRNDASHLLVFTTDAKTHIALDGRLAGIVQPNDGQCHVGSDNHYSASTTMDYPSLGLMTEKLSQKNINLIFAVTENVVNLYQNYSELIPGTTVGVLSMDSSNVLQLIVDAYGKIRSKVELEVRDLPEELSLSFNATCLNNEVIPGLKSCMGLKIGDTVSFSIEAKVRGCPQEKEKSFTIKPVGFKDSLIVQVTFDCDCACQAQAEPNSHRCNNGNGTFECGVCRCGPGWLGSQCECSEEDYRPSQQDECSPREGQPVCSQRGECLCGQCVCHSSDFGKITGKYCECDDFSCVRYKGEMCSGHGQCSCGDCLCDSDWTGYYCNCTTRTDTCMSSNGLLCSGRGKCECGSCVCIQPGSYGDTCEKCPTCPDACTFKKECVECKKFDRGALHDENTCNRYCRDEIESVKELKDTGKDAVNCTYKNEDDCVVRFQYYEDSSGKSILYVVEEPECPKGPD
